{"source": "paper PMC2751797", "substrate": "NC(=O)c1cc(N2CC2)c([N+](=O)[O-])cc1[N+](=O)[O-]", "experiment": "purified protein", "assay_type": "biochemical, Escherichia coli", "settings": "NADPH 60 μM fixed, 10 mM Tris-HCl pH 7.5, 23 °C", "data": [{"protein": "NfsB (His6-NfsB) (Escherichia coli K-12) (protein) MDIISVALKRHSTKAFDASKKLTPEQAEQIKTLLQYSPSSTNSQPWHFIVASTEEGKARVAKSAAGNYVFNERKMLDASHVVVFCAKTAMDDVWLKLVVDQEDADGRFATPEAKAANDKGRKFFADMHRKDLHDDAEWMAKQVYLNVGNFLLGVAALGLDAVPIEGFDAAILDAEFGLKEKGYTSLVVVPVGHHSVEDFNATLPKSRLPQNITLTEV", "values": [{"measurement": "Km", "value": "79 ± 22", "unit": "µM"}, {"measurement": "kcat/Km", "value": 26000, "unit": "M⁻¹ s⁻¹"}]}]}
